According to US20180118814A1 (IGM BIOSCIENCES, published 2018):

T1: HBsAg (Prospec HBS-872) (hepatitis B virus)
T1 chain: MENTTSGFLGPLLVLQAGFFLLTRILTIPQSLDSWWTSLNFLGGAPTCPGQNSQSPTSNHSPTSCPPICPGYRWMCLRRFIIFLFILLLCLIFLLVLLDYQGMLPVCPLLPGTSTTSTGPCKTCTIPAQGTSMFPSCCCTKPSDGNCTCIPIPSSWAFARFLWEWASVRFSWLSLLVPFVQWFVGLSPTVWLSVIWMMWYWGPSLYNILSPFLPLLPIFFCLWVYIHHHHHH

B1: HBV23MJ (antibody)
heavy: EVQVLESGGGLVQPGGSLRLSCAASGFRFSSYAMSWVRQAPGKGLEWVSGISGTGENTYYADSVKGRFTISRDNSKNTLYVQMNSLRAEDTAVYYCAKDAILGSGHPWYFHVWGRGTLVTVSSGSASAPTLFPLVSCENSPSDTSSVAVGCLAQDFLPDSITFSWKYKNNSDISSTRGFPSVLRGGKYAATSQVLLPSKDVMQGTDEHVVCKVQHPNGNKEKNVPLPVIAELPPKVSVFVPPRDGFFGNPRKSKLICQATGFSPRQIQVSWLREGKQVGSGVTTDQVQAEAKESGPTTYKVTSTLTIKESDWLSQSMFTCRVDHRGLTFQQNASSMCVPDQDTAIRVFAIPPSFASIFLTKSTKLTCLVTDLTTYDSVTISWTRQNGEAVKTHTNISESHPNATFSAVGEASICEDDWNSGERFTCTVTHTDLPSPLKQTISRPKGVALHRPDVYLLPPAREQLNLRESATITCLVTGFSPADVFVQWMQRGQPLSPEKYVTSAPMPEPQAPGRYFAHSILTVSEEEWNTGETYTCVVAHEALPNRVTERTVDKSTGKPTLYNVSLVMSDTAGTCY
light: SYVLTQPPSVSVAPGQTARMTCGGNNIGSESVHWFQQKPGQAPVLVVYDDSDRPSGIPERFSGSNSGNTATLTISRVEAGDEADYYCQVWDSSSDHAVFGGGTQLTVLGQPKAAPSVTLFPPSSEELQANKATLVCLISDFYPGAVTVAWKADSSPVKAGVETTTPSKQSNNKYAASSYLSLTPEQWKSHRSYSCQVTHEGSTVEKTVAPTECS
chain: not shown
notes: Human IgM with human J-chain; also called HBV23 anti-HBsAg IgM+human J-chain
B2: HBV23G (antibody, human IgG1, lambda, V domains shown)
VH: EVQVLESGGGLVQPGGSLRLSCAASGFRFSSYAMSWVRQAPGKGLEWVSGISGTGENTYYADSVKGRFTISRDNSKNTLYVQMNSLRAEDTAVYYCAKDAILGSGHPWYFHVWGRGTLVTVSS
VL: SYVLTQPPSVSVAPGQTARMTCGGNNIGSESVHWFQQKPGQAPVLVVYDDSDRPSGIPERFSGSNSGNTATLTISRVEAGDEADYYCQVWDSSSDHAVFGGGTQLTVLG
notes: also called IgG counterpart (HBV23G); human IgG antibody provided in Cerino et al. (2015)

Target: T1, HBsAg (Prospec HBS-872)
Test: ELISA, plate coated with HBsAg (Prospec HBS-872), anti-human lambda-HRP detection, weight concentrations

| Binder | EC50 [µg/mL] |
| --- | --- |
| B1 | 0.064 |
| B2 | 0.03 |
